# Source: paper doi:10.1101/551788
# Molecular target: Tom20.CIB.GFP (not stated | A. thaliana)
# Assay: light-induced recruitment to mitochondria
row,Substance,half-life of association with the OMM [min]
1,Cry2(1-531).L348F.mCh (from UniProt Q96524 1-531) (domain or fragment),32.8
2,Cry2(1-531).mCh (from UniProt Q96524 1-531) (domain or fragment),6.25
